The numbers were not newly measured in article PMC4258470, which cites them from elsewhere.

pKd: −log10 of the molar value.

Data set [1] has as its target p53 N-terminal transactivation domain (Homo sapiens) (UniProt P04637).
Data set [2] deals with HPV16 E7 CR1-CR2 (Human papillomavirus type 16) (UniProt P03129).
HPV16 E7 CR1-CR2 (Human papillomavirus type 16), sequence (P03129 1-40): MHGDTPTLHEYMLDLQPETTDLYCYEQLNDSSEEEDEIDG

p53 N-terminal transactivation domain (Homo sapiens), sequence (P04637 1-61): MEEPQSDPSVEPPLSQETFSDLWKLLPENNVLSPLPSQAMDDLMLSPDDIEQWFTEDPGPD
CBP TAZ2, sequence (P45481 1766-1847): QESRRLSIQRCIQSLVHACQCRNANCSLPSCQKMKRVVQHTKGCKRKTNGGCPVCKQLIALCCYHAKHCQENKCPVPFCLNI
pRb, sequence (P06400 2-928): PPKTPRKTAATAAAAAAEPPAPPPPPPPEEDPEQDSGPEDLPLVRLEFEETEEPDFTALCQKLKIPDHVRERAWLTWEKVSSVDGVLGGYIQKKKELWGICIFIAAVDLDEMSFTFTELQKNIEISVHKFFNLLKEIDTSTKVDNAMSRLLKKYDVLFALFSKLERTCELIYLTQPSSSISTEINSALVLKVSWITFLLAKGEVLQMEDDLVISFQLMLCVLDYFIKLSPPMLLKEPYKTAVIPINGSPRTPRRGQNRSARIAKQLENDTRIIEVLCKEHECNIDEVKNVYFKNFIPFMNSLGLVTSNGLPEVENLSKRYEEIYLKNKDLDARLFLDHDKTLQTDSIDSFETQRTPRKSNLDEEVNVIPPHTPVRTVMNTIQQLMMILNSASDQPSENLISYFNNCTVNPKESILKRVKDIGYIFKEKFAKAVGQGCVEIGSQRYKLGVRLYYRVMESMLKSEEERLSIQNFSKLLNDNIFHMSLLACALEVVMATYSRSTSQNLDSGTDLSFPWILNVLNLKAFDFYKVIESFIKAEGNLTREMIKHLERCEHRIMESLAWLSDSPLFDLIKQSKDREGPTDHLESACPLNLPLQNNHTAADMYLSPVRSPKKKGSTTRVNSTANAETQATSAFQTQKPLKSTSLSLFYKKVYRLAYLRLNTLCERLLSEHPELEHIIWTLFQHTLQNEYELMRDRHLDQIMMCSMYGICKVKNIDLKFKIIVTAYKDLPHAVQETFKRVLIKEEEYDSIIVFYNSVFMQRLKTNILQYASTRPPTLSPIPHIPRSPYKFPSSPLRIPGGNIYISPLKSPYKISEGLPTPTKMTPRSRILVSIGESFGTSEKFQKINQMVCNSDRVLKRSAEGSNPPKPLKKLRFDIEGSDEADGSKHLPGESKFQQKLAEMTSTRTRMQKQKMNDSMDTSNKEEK

Turning to CBP TAZ2 (from UniProt P45481), the pKd (in general, the Kd on a negative log10 scale, so that one unit is a factor of ten) in data set [1] was 7.70.
pRb (from UniProt P06400): the pKd in data set [2] was 8.70.
